For orientation: stoichiometry N means a count of units in the complex or per binding partner.

The experiment concerns the target TnsB transposase of the type V-K CAST element from Scytonema hofmanni (ShCAST), full length (Scytonema hofmanni). Description: cryo-EM structure; TnsB strand-transfer complex: strand-transfer DNA and purified TnsB mixed 1:6, 26 mM Hepes pH 7.5, 5 mM Tris-HCl pH 7.5, 20 mM KCl, 100 mM NaCl, 0.2 mM MgCl2, 15 mM MgOAc2, 37 °C 40 min, then size-exclusion chromatography; C2 symmetry imposed; 3.7 Å. For orientation: In gel filtration, larger molecules generally elute earlier.

“TnsB transposase of the type V-K CAST element from Scytonema hofmanni (ShCAST), full length (enzyme)” came in with a stoichiometry N of 4.

Source of the values: PMC9371665.
